Test results taken from article PMC10842222.

Target: CRM1 (UniProt O14980)
Experiment: co-immunoprecipitation, immunoblot
Settings: reference: ALKBH5 WT, EGF-treated; sites Y71

binding against the reference: stronger
Substance: ALKBH5 (from UniProt Q6P6C2) ALKBH5 Y71F, EGF-treated
